Reference: article PMC9482650, “Quantitative fragmentomics allow affinity mapping of interactomes” (Nature Communications, 2022)
Where a chain is given by its changes, count along the chain named.

Tests used:
Assay in all cases: holdup assay
Parameters in all cases: key: below the threshold = too weak to quantify, mostly under pKd 3.1 to 4
[1] = biological target: T1, DVL3, Q92997
T1 sequence (Q92997 244-331, limits assumed, looked up): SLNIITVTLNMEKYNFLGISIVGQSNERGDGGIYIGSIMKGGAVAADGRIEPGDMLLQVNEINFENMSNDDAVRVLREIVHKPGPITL

[2] = biological target: GRASP, Q7Z6J2
GRASP, Q7Z6J2, sequence (Q7Z6J2 96-193): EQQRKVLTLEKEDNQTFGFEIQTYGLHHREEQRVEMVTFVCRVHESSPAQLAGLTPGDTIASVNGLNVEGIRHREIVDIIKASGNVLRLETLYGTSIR

[3] = biological target: NOS1, P29475
NOS1, P29475, sequence (P29475 9-101): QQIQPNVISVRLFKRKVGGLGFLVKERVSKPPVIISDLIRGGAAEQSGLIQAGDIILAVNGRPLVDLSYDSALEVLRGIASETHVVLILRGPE

[4] = biological target: T2, MPP2, Q14168
T2 sequence (Q14168 180-250, limits assumed, looked up): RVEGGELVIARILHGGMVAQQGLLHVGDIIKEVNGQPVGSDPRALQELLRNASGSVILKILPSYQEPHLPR

[5] = biological target: HTRA1, Q92743
HTRA1, Q92743, sequence (Q92743 360-477): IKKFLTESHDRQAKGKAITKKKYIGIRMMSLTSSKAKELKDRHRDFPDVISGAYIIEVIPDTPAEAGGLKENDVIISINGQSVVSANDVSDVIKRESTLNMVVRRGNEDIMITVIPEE

[6] = biological target: CASK, O14936
CASK, O14936, sequence (O14936 487-570): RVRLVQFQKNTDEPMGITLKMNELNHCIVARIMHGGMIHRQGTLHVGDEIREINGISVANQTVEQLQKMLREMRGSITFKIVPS

[7] = biological target: MAGI2_2, Q86UL8
MAGI2_2, Q86UL8, sequence (Q86UL8 410-522): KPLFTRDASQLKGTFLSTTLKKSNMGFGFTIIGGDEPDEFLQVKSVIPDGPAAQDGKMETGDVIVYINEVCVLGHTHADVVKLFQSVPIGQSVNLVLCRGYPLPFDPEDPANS

[8] = biological target: T3, PARD3B_1, Q8TEW8
T3 sequence (Q8TEW8 196-299, limits assumed, looked up): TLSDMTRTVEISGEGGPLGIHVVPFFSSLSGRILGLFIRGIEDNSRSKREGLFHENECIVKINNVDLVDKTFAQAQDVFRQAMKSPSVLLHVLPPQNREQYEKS

[9] = biological target: T4, LIN7B, Q9HAP6
T4 sequence (Q9HAP6 88-185, limits assumed, looked up): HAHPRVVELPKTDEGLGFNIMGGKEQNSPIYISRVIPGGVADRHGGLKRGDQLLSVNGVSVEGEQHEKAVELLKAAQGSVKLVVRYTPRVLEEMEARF

[10] = biological target: HTRA2, O43464
HTRA2, O43464, sequence (O43464 355-458): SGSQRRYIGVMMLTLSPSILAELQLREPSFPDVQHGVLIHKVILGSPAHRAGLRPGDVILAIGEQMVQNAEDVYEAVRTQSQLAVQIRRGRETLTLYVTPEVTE

[11] = biological target: T5, ARHGEF11, O15085
T5 sequence (O15085 42-136, limits assumed, looked up): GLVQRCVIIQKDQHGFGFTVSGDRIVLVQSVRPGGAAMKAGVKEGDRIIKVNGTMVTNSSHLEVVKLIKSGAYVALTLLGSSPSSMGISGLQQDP

[12] = biological target: T6, LIN7A, O14910
T6 sequence (O14910 103-200, limits assumed, looked up): T4 sequence (Q9HAP6 88-185, limits assumed, looked up) with A2S, I20V, V35I, D42E, Q65H, Q77K, G78D, R89K

[13] = biological target: T7, APBA2_2, Q99767
T7 sequence (Q99767 654-744, limits assumed, looked up): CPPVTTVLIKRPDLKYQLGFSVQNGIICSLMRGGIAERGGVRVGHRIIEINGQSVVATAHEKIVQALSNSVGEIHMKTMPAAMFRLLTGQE

[14] = biological target: SCRIB_1, Q14160
SCRIB_1, Q14160, sequence (Q14160 718-814): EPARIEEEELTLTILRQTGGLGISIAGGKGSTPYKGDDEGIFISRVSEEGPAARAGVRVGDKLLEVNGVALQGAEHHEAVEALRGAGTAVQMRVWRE

[15] = biological target: FRMPD4, Q14CM0
FRMPD4, Q14CM0, sequence (Q14CM0 67-160): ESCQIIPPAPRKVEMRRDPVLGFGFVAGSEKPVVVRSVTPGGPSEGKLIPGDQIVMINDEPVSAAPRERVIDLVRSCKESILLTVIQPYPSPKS

[16] = biological target: T8, SNTA1, Q13424
T8 sequence (Q13424 82-180, limits assumed, looked up): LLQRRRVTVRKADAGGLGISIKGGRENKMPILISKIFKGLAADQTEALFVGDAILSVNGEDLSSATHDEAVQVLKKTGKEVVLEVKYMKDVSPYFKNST

[17] = biological target: T9, SIPA1L2, Q9P2F8
T9 sequence (Q9P2F8 945-1036, limits assumed, looked up): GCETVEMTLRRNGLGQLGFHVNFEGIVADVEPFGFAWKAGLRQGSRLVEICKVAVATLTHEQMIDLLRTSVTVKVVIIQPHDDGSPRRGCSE

[18] = biological target: T10, LNX2_3, Q8N448
T10 sequence (Q8N448 463-564, limits assumed, looked up): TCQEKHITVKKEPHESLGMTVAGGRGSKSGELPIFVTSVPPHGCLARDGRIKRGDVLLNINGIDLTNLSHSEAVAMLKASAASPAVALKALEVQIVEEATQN

[19] = biological target: PDLIM1, O00151
PDLIM1, O00151, sequence (O00151 1-87): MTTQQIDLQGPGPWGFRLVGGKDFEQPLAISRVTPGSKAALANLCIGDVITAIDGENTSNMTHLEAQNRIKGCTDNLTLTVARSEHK

[20] = biological target: GRIP2_6, Q9C0E4
GRIP2_6, Q9C0E4, sequence (Q9C0E4 648-740): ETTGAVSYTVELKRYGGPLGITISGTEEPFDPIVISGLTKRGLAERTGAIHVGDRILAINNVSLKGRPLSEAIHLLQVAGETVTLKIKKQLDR

[21] = biological target: IL16_1, Q14005
IL16_1, Q14005, sequence (Q14005 210-306): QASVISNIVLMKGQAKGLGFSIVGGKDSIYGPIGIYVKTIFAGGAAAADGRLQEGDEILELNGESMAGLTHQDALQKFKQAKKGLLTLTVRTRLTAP

[22] = biological target: T11, DLG3_3, Q92796
T11 sequence (Q92796 374-475, limits assumed, looked up): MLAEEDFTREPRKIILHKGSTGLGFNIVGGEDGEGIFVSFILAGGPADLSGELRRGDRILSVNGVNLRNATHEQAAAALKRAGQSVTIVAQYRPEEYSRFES

[23] = biological target: MAST1, Q9Y2H9
MAST1, Q9Y2H9, sequence (Q9Y2H9 962-1065): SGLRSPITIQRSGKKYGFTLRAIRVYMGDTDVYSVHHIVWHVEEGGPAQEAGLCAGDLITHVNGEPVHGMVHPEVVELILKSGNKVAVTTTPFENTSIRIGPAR

[24] = biological target: NHERF2_2, Q15599
NHERF2_2, Q15599, sequence (Q15599 142-238): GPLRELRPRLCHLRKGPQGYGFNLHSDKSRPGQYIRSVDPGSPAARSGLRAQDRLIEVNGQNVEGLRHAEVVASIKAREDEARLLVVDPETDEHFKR

[25] = biological target: T12, ARHGAP21, Q5T5U3
T12 sequence (Q5T5U3 45-169, limits assumed, looked up): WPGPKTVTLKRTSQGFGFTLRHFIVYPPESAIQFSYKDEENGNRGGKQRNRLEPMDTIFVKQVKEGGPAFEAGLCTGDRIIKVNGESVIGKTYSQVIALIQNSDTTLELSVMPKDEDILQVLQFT

[26] = plain residues with an end cap or a label only (N-terminal biotin on a linker: ahx)
[27] = plain residues with an end cap or a label only (N-terminal biotin on a linker: ado-ado)

## KDECVIATEV [DLL1, O00548]
[1]; [26]
  pKd: below the threshold
[2]; [26]
  pKd: 4.31
[3]; [26]
  pKd: 3.55
[4]; [26]
  pKd: below the threshold
[5]; [26]
  pKd: 4.04
[6]; [26]
  pKd: below the threshold
[7]; [26]
  pKd: below the threshold
[8]; [26]
  pKd: below the threshold
[9]; [26]
  pKd: below the threshold
[10]; [26]
  pKd: below the threshold
[11]; [26]
  pKd: 4.51
[12]; [26]
  pKd: below the threshold
[13]; [26]
  pKd: below the threshold
[14]; [26]
  pKd: below the threshold
[15]; [26]
  pKd: below the threshold
[16]; [26]
  pKd: below the threshold
[17]; [26]
  pKd: below the threshold
[18]; [26]
  pKd: below the threshold
[19]; [26]
  pKd: below the threshold
[20]; [26]
  pKd: below the threshold
[21]; [26]
  pKd: 3.47
[22]; [26]
  pKd: below the threshold
[23]; [26]
  pKd: 4.38
[24]; [26]
  pKd: below the threshold
[25]; [26]
  pKd: below the threshold

## AKPQPVDSWV [ARVCF, O00192]
[1]; [26]
  pKd: 3.96
[2]; [26]
  pKd: below the threshold
[3]; [26]
  pKd: 3.85
[4]; [26]
  pKd: below the threshold
[5]; [26]
  pKd: 4.6
[6]; [26]
  pKd: below the threshold
[7]; [26]
  pKd: below the threshold
[8]; [26]
  pKd: below the threshold
[9]; [26]
  pKd: below the threshold
[10]; [26]
  pKd: 3.68
[11]; [26]
  pKd: below the threshold
[12]; [26]
  pKd: below the threshold
[13]; [26]
  pKd: below the threshold
[14]; [26]
  pKd: 3.74
[15]; [26]
  pKd: below the threshold
[16]; [26]
  pKd: below the threshold
[17]; [26]
  pKd: below the threshold
[18]; [26]
  pKd: below the threshold
[19]; [26]
  pKd: 3.55
[20]; [26]
  pKd: below the threshold
[21]; [26]
  pKd: 4.1
[22]; [26]
  pKd: below the threshold
[23]; [26]
  pKd: below the threshold
[24]; [26]
  pKd: below the threshold
[25]; [26]
  pKd: below the threshold

## PDSYHRRDFW [U2AF2, P26368]
[1]; [27]
  pKd: below the threshold
[2]; [27]
  pKd: below the threshold
[3]; [27]
  pKd: below the threshold
[4]; [27]
  pKd: 3.69
[5]; [27]
  pKd: 4.14
[6]; [27]
  pKd: below the threshold
[7]; [27]
  pKd: below the threshold
[8]; [27]
  pKd: 4.1
[9]; [27]
  pKd: below the threshold
[10]; [27]
  pKd: below the threshold
[11]; [27]
  pKd: 3.6
[12]; [27]
  pKd: below the threshold
[13]; [27]
  pKd: below the threshold
[14]; [27]
  pKd: below the threshold
[15]; [27]
  pKd: 3.71
[16]; [27]
  pKd: below the threshold
[17]; [27]
  pKd: below the threshold
[18]; [27]
  pKd: below the threshold
[19]; [27]
  pKd: below the threshold
[20]; [27]
  pKd: below the threshold
[21]; [27]
  pKd: below the threshold
[22]; [27]
  pKd: below the threshold
[23]; [27]
  pKd: 3.49
[24]; [27]
  pKd: 3.79
[25]; [27]
  pKd: 4.08
